# Test results as given in patent US6569833B1, “Cyclin dependent kinase binding peptides” (Cyclacel Limited, priority 1995, dated 2003).
# B1: cdk4 (protein)
# chain: MATSRYEPVAEIGVGAYGTVYKARDPHSGHFVALKSVRVPNGGGGGGGLPISTVREVALLRRLEAFEHPNVVRLMDVCATSRTDREIKVTLVFEHVDQDLRTYLDKAPPPGLPAETIKDLMRQFLRGLDFLHANCIVHRDLKPENILVTSGGTVKLADFGLARIYSYQMALTPVVVTLWYRAPEVLLQSTYATPVDMWSVGCIFAEMFRRKPLFCGNSEADQLGKIFDLIGLPPEDDWPRDVSLPRGAFPPRGPRPVQSVVPEMEESGAQLLLEMLTFNPHKRISAFRALQHSYLHKDEGNPE
# How the values were obtained:
# cdk4 [1] = target: cdk4 (human, UniProt P11802 1-303); experiment: cell-based or functional assay
# cdk4-cyclin D [2] = target: T1, cdk4-cyclin D (Homo sapiens, UniProt P11802); experiment: pRb phosphorylation in vitro by Sf9 lysates containing cdk4 and cyclin D; type: biochemical; details: for block of cdk4-cyclin D dependent pRb phosphorylation: 50 μM peptide, dilution series
# T1 construct: made in house; host or cells: Sf9 insect cells infected with baculovirus (separate crude lysates for cdk4 and cyclin D, mixed in the assay)
# HaCaT cells = experiment: Cell cycle inhibition: S-phase entry of serum-starved cells by BrdU incorporation; type: cell-based, human; details: 10 μM peptide concentration
# Experimental: Cells were synchronised in G0 by serum starvation for 72 hours before serum and 10 μM BrdU were added. […] The data presented show % inhibition of cells entering S-phase after incubation with peptide 6 coupled to Penetratin in relation to cells incubated with serum only.
# A cysteine residue was added to the C-terminus of peptide 6 and used for coupling to the 16 amino acids long Penetratin peptide (amino acid sequence RQIKIWFQNRRMKWKK)(SEQ ID NO:3) of the Antennapedia homeodomain (24) (Appligen) by means of a disulzhide bond. Cells were seeded on cover slips prior to starvation for 72 hours in DMEM medium without FCS. The medium was substituted by DMM containing 10% FCS and BrdU. The coupled peptides were added at different time points after serum stimulation. The number of cells entering S-phase was determined by estimating the numbers of cells incorporating BrdU at 24 hours by fixing the cells on cover slips in acetone/methanol (1:1), incubating in 1M HCl for 30 minutes, washing 6 times in PBS and then incubating with anti-BrdU monoclonal antibody and Texas Red conjugated secondary antibody and mounted in Mowiol containing Hoescht. At least six different areas on three different cover slips were counted for each single experiment which was repeated at least two times. The values presented in FIG. 3A show one representative experiment.
# cdk4 [3] = target: T2, cdk4 (Homo sapiens, UniProt P11802); experiment: Peptide precipitation of in vitro translated 35S-labelled cdk4 from reticulocyte lysate; type: binding; details: biotinylated peptide on streptavidin agarose beads, densitometry
# T2 construct: host or cells: coupled in vitro transcription/translation in rabbit reticulocyte lysate
# Experimental: (§1) A 20 aa peptide library with a 5 aa overlap of p16 (apart from the first 8 N-terminal residues) was synthesised adding a SGSG linker to the N-terminus to which a biotin group was coupled. The alanine substitution series of peptide 6 was synthesised in the same way. The peptides were coupled to streptavidin immobilised on agarose beads and washed 4 times in PBS before incubating for 1 hour on ice with rabbit reticulocyte lysate (Promega) containing ^35S-methionine labelled cdk4 or cdk6. The beads were washes 4 times in 1.2×PBS with 0.2% Triton X-100 before addition of SDS loading buffer and applied to 12% SDS polyacrylamide gels. The gels were exposed to an autoradiography film and the bands corresponding to cdk4 and cdk6 were analysed by densitometry.
# (§2) To study the binding of peptides to cdk4 and cdk6 we expressed the proteins in a coupled in vitro reticulocyte translation system in the presence of ^35S labelled methionine. A biotin group coupled to a Ser-Gly-Ser-Gly-linker at the N-terminus of the peptides was coupled to streptavidin coated agarose beads and incubated with the cell lysates.
# cdk6 = target: T3, cdk6 (Homo sapiens, UniProt Q00534); experiment: Peptide precipitation of in vitro translated 35S-labelled cdk6 from reticulocyte lysate; type: binding; details: biotinylated peptide on streptavidin agarose beads, densitometry
# T3 construct: host or cells: coupled in vitro transcription/translation in rabbit reticulocyte lysate
# Experimental: as §1, §2
# cdk4-cyclin D [4] = target: T1, cdk4-cyclin D; experiment: pRb phosphorylation in vitro by Sf9 lysates containing cdk4 and cyclin D; type: biochemical; parameters: dose or concentration left out as unconfirmed; details: full length Rb protein
# Experimental: Peptides were incubated at a concentration of […] in a buffer containing 50 mM Hepes pH 7.4, 10 mM MgCl2, 2.5 mM EGTA, 1 mM DTT, 10 mM β-glycerophosphate, 1 mM NaF and 1 mM Na3VO4 and […] of extract from Sf9 insect cells infected with human cdk4-expressing baculovirus lysed in 10 mM Hepes pH 7.4, 10 mM NaCl, 1 mM EDTA and 0.5 mM PMSF. The mixture was incubated for 60 minutes on ice. Human cyclin D containing Sf9 lysate ([…]) prepared as above was added together with 0.6 mg of purified recombinant full length Rb protein and 2.5 mM ^32P ATP in a final concentration of […] ATP and incubated for 10 minutes at +30° C., the reaction was terminated by addition of SDS loading buffer and loaded onto 8% SDS polyacrylamide gels. The gels were either exposed to autoradiographic film (FIG. 2A) or the levels of pRb phosphorylation were estimated by a Phosphoimager (FIG. 2B).
# [5] = target: peptide 10 of the p16 20 aa peptide library
# [6] = target: peptide 1 of the p16 20 aa peptide library
# [7] = target: T4, peptide 6 (amino acids 84 to 103 of p16), biotinylated via N-terminal SGSG linker
# T4 chain: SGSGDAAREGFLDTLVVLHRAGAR
# [8] = target: T5, peptide 6 with aspartic acid 92 substituted by alanine
# T5 chain: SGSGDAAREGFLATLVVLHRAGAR
# [9] = target: T6, peptide 6 with residue 94 substituted by alanine
# T6 chain: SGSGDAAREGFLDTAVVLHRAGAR
# T3 sequence (Q00534 whole entry): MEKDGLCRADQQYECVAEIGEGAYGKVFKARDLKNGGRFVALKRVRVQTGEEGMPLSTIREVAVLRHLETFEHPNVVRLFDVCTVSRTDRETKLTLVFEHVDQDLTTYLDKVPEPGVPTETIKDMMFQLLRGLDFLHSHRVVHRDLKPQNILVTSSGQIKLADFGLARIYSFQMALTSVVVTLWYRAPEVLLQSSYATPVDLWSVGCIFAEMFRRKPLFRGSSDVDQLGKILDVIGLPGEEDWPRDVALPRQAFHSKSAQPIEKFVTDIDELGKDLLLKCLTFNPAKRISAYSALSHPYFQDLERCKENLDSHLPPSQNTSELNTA
Molecule,relative binding to in vitro expressed cdk4 (cdk4 [3]),relative binding to in vitro expressed cdk6 (cdk6),inhibition of pRb phosphorylation (cdk4-cyclin D [4]),further results
"His-tagged p16 protein with the VV.95,96AA mutations (from UniProt P42771 1-156)",–,–,–,"50% kinase inhibitory concentration, fold increase against wild type His-tagged p16 (cdk4 [1]): 5 fold"
"peptide 21: 36aa synthetic peptide (Penetratin sequence plus 20aa p16 peptide) that carries the VV.95,96AA mutation (RQIKIWFQNRRMKWKKDAAREGFLDTLAALHRAGAR)",–,–,–,"inhibition of cdk-cyclin D kinase activity (cdk4-cyclin D [2]; 36aa Penetratin-linked peptides, increasing concentrations (FIG. 6A)): less active; block of S-phase entry (HaCaT cells): significantly less active in vivo; block of S-phase entry (HaCaT cells; listed as pep21): only marginal effect"
"DAAREGFLDTLVVLHGSGAR (SGSGDAAREGFLDTLVVLHGSGAR) [mouse p16 peptide, peptide derived from mouse p16 corresponding to the 84-103 region of p16]",binds,binds,inhibit pRb phosphorylation,–
"AREGFLDTLVVLHRAGAR (SGSGAREGFLDTLVVLHRAGAR) [peptide 6 in FIGS. 5A-C, deletion series peptide, 2 residues removed at the N-terminus of the p16 84-103 peptide]",severely reduced,severely reduced,severely reduced,–
Ala94: peptide 6 with the single alanine substitution at residue 94 (SGSGDAAREGFLDTAVVLHRAGAR),–,–,–,block of cdk4-cyclin D dependent pRb phosphorylation (cdk4-cyclin D [2]): completely inactivates the function of peptide 6
"FLDTLVVLHRAGAR [peptide 8, 14 aa peptide of the p16 deletion series]",–,–,able to exert a biological effect which is the same or analogous to that of full length p16,–
"FLDTLVVLHRAG [peptide 9, 12 aa peptide of the p16 deletion series]",–,–,able to exert a biological effect which is the same or analogous to that of full length p16,–
Ala92: peptide 6 in which aspartic acid 92 is substituted by alanine (SGSGDAAREGFLATLVVLHRAGAR),more potent binding,more potent binding,even more efficiently than the wild type peptide 6,block of cdk4-cyclin D dependent pRb phosphorylation (cdk4-cyclin D [2]; listed as Ala92 peptide): almost completely blocked; block of cdk4-cyclin D dependent pRb phosphorylation (cdk4-cyclin D [2]; listed as Ala-92): nearly complete
"DAAPEGFLDTLVVLHRAGAR [R87P, p16 84-103 peptide with the R87P substitution]",–,–,does not hamper the function of the peptide,–
"DAARAGFLDTLQTLLEFQAD (SGSGDAARAGFLDTLQTLLEFQAD) [p18 peptide, peptide derived from p18 corresponding to the 84-103 region of p16]",binds,binds,inhibit pRb phosphorylation,–
"EGFLDTLVVLHRAGAR [peptide 7, 16 aa peptide of the p16 deletion series]",–,–,able to exert a biological effect which is the same or analogous to that of full length p16,–
B1,–,–,–,pRb phosphorylation [5]: do not affect pRb phosphorylation; pRb phosphorylation [6]: do not affect pRb phosphorylation; level of pRb phosphorylation by Sf9 lysates containing cdk4 and cyclin D [7]: significantly reduces the level of pRb phosphorylation; phosphorylation of the full length Rb protein by Sf9 lysates containing cdk4 and cyclin D [8]: inhibits phosphorylation of the full length Rb protein even more efficiently than the wild type peptide 6; pRb phosphorylation (dilution series) [9]: the single substitution Ala94 completely inactivates the function of peptide 6 in this assay
"RQIKIWFQNRRMKWKKDAAREGFLDTLAALHRAGAR [peptide 21 (36 aa synthetic peptide, Penetratin-p16 peptide carrying the VV.95,96AA mutation)]",–,–,–,"50% kinase inhibitory concentration, fold increase (cdk4 [1]): ~5 fold"
